Measurements: article PMC10987677 (The EMBO Journal, 2024)

Molecular target: T1, IFT54^CH (IFT54 residues 1-137) (human, UniProt Q8TDR0 1-137)
T1 construct: IFT54 (IFT-B subunit), human, CH domain, residues 1-137; also called IFT54 CH domain; source: baculovirus system, purified (IgG Sepharose, released by TEV protease); not shown: ZZ, N-terminal, cleaved
T1 sequence (looked up): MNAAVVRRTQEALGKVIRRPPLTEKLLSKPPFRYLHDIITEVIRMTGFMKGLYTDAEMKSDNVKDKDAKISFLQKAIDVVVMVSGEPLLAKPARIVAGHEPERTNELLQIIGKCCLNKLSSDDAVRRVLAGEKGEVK
Assay: pull-down; ZZ-SNAP-GST-WDR60^355-449 immobilized on IgG Sepharose 6; purified IFT54^CH at 4.6 µM flowed over in wash buffer (30 mM HEPES pH 7.4, 150 mM KCl, 1 mM EGTA, 1 mM DTT, 10% glycerol); TEV elution, SDS-PAGE, Sypro Red
Conditions: both partners purified

B1: ZZ-SNAP-GST-WDR60^355-449 (domain or fragment, human, UniProt Q8WVS4 355-449, looked up)
chain: IEKEETDLENARADAYTASCEDDFEDYEDDFEVCDGDDDESSNEPESREKLEELPLAQKKEIQEIQRAINAENERIGELSLKLFQKRGRTEFEKE
notes: WDR60/DYNC2I1, human, residues 355-449 of the N-terminal extension; released by TEV protease afterwards for SDS-PAGE; source: baculovirus system, immobilized on IgG Sepharose 6 resin and washed; not shown: ZZ, N-terminal, kept; SNAP, N-terminal, kept; GST, N-terminal, kept
B1: binds.
